Test results from paper PMC7954794, “Protein context shapes the specificity of SH3 domain-mediated interactions in vivo” (Nature Communications, 2021).

Key:
Format in all cases: cell-based, Saccharomyces cerevisiae
ABP1 = assay: DHFR-PCA on solid medium, bait ABP1 (Fig. 1B); conditions: bait ABP1, label = prey; 2-4 replicates
From the text: Supplement 41467_2021_21873_MOESM8_ESM.xlsx, sheet "Fig1B" | column: medsize; medrep; Ratio; Score

Lsb3 = assay: Deep mutational scanning of Abp1 SH3, Abp1-Lsb3 DHFR-PCA (DMS score); conditions: Abp1-Lsb3 DHFR-PCA; WT = 0; Fig. S3C-D
Method in brief: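 Yeast, genomic ABP1 SH3 single-codon mutant pool (58 positions, NNN) × DHFR F[3] prey; diploid selection, then 2 cycles PCA selection medium, 72 h, 30 °C each. Readout: Illumina sequencing of SH3 locus vs. unselected diploid reference (S2). Biological duplicates.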

Hua2 = assay: Low-throughput liquid DHFR-PCA of selected Abp1 SH3 mutants (Fig. S3F); conditions: average
Procedure: Liquid DHFR-PCA low-throughput experiments were performed to validate the PPIs identified as affected by the SH3 domain deletions in the high-throughput solid DHFR-PCA screen (256 PPIs weaker or lost and 116 PPIs stronger or gained following domain deletions). Mating and the diploid selection were performed as described for the large-scale experiment, with the exception that the plates were in 384 formats. Following the second diploid selection, diploid cells were inoculated in a 96 v-shaped well plate using a robotically manipulated 96 pin tool in a synthetic complete medium with MSG at pH 6.0 with NAT and HPH. After 48 h of growth, optical density (OD) was read using a TECAN Infinite F200 Pro, and dilutions to 1 OD in sterile nanopure water were prepared. Cells were then diluted to 0.1 OD by combining 25 µl of cell suspension at OD = 1 and 225 µl of PCA selection media without agar in a 96-wells plate. Plates were incubated at 30 °C in a TECAN Infinite M Nano and OD was monitored each 15 min for 72 h. […]
Selected non-conserved positions (E6 , E13, N15 and N27) sensitivities to mutations for the Abp1-Hua2 PPI were tested in a low -throughput liquid DHFR -PCA assay. The growth of the mutants in the low -throughput experiment (average of four replicates of the total OD for each growth curve, y axis ) is compared to the mutants DMS score (x axis). […]

B1: YBL039C (protein, UniProt P28274 1-579, looked up)
CTP synthase 1: MKYVVVSGGVISGIGKGVLASSTGMLMKTLGLKVTSIKIDPYMNIDAGTMSPLEHGECFVLDDGGETDLDLGNYERYLGVTLTKDHNITTGKIYSHVIAKERKGDYLGKTVQIVPHLTNAIQDWIERVAKIPVDDTGMEPDVCIIELGGTVGDIESAPFVEALRQFQFKVGKENFALIHVSLVPVIHGEQKTKPTQAAIKGLRSLGLVPDMIACRCSETLDKPTIDKIAMFCHVGPEQVVNVHDVNSTYHVPLLLLEQKMIDYLHARLKLDEISLTEEEKQRGLELLSKWKATTGNFDESMETVKIALVGKYTNLKDSYLSVIKALEHSSMKCRRKLDIKWVEATDLEPEAQESNKTKFHEAWNMVSTADGILIPGGFGVRGTEGMVLAARWARENHIPFLGVCLGLQIATIEFTRSVLGRKDSHSAEFYPDIDEKNHVVVFMPEIDKETMGGSMRLGLRPTFFQNETEWSQIKKLYGDVSEVHERHRHRYEINPKMVDELENNGLIFVGKDDTGKRCEILELKNHPYYIATQYHPEYTSKVLDPSKPFLGLVAASAGILQDVIEGKYDLEAGENKFNF
- medrep (log2 median colony size normalized to plate background, PCA score) (ABP1): 3.877

B2: WT (protein, UniProt P15891 2-592, looked up)
Actin-binding protein: ALEPIDYTTHSREIDAEYLKIVRGSDPDTTWLIISPNAKKEYEPESTGSSFHDFLQLFDETKVQYGLARVSPPGSDVEKIIIIGWCPDSAPLKTRASFAANFAAVANNLFKGYHVQVTARDEDDLDENELLMKISNAAGARYSIQTSSKQQGKASTPPVKKSFTPSKSPAPVSKKEPVKTPSPAPAAKISSRVNDNNDDDDWNEPELKERDFDQAPLKPNQSSYKPIGKIDLQKVIAEEKAKEDPRLVQKPTAAGSKIDPSSDIANLKNESKLKRDSEFNSFLGTTKPPSMTESSLKNDDDKVIKGFRNEKSPAQLWAERKAKQNSGNAETKAEAPKPEVPEDEPEGEPDVKDLKSKFEGLAASEKEEEEMENKFAPPPKKSEPTIISPKPFSKPQEPVKAEEAEQPKTDYKKIGNPLPGMHIEADNEEEPEENDDDWDDDEDEAAQPPLPSRNVASGAPVQKEEPEQEEIAPSLPSRNSIPAPKQEEAPEQAPEEEIEEEAEEAAPQLPSRSSAAPPPPPRRATPEKKPKENPWATAEYDYDAAEDNELTFVENDKIINIEFVDDDWWLGELEKDGSKGLFPSNYVSLGN
- DMS score Lsb3 (Lsb3): 0
- ave_au (DMS validation) (Hua2): 93.0274 au
